Test results: the supplement of paper PMC11780869

System: Bacillus subtilis
Test: cleaved RNA product abundance (RNA/gDNA barcode ratio) relative to median wild-type variant (ratio to wild type); higher = more accumulation of the downstream cleavage product
Conditions: cleavage site: cggR-gapA (positions -7 to +36 mutated)
Procedure, shortened: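 Oligos with a 9% error rate were used to build barcoded, mutagenized RNase Y cleavage-site windows within truncated aprE or tetM reporter mRNAs, which were integrated into the B. subtilis chromosome. Cultures were grown in LB at 37°C between OD600 0.0003 and 0.3. Cleaved RNA was gel-selected, reverse transcribed and barcode-sequenced, as were genomic DNA barcodes, and UMIs were collapsed. Cleaved product abundance is the scaled RNA:gDNA barcode ratio, with the median construct carrying the unmutated site as reference.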

[1] = experiment (reporter, strain, medium): exp 6: tetM reporter, strain 168
[2] = experiment (reporter, strain, medium): exp 2b: truncated aprE reporter, strain BJT200
[3] = experiment (reporter, strain, medium): exp 4a: truncated aprE reporter, strain BJT201 with 2% xylose (RNase J1 expressed)

| Sequence | cleaved RNA product abundance [1] | cleaved RNA product abundance [2] | cleaved RNA product abundance [3] |
| --- | --- | --- | --- |
| ACAGACGAAGGAGCCGCAAAGAAGTTATTAAGGGATGAATAATCCCTTAATAAAAATATCTCTCACTTATTTAAA | 0.227 | – | – |
| ACAGACGAAGGAGCCGCAAAGAAGTTATTAAGGGATGAATAATCCCTTAATATAAACATCTCTCACTTATTTAAA | – | 0.304 | 0.216 |
| ACAGACGAAGGAGCCGCAAAGAAGTTATTAAGGGATGAATAATCCCTTAATATAAATAACTCTCACTTATTTAAA | – | – | 0.433 |
| ACAGACGAAGGAGCCGCAAAGAAGTTATTAAGGGATGAATAATCCCTTAATATAAATATCTCTCACTTATTTAAA | 0.623 | 0.782 | 0.595 |
| ACAGACGAAGGAGCCGCAAAGAAGTTATTAAGGGATGAATAATCCCTTAATATAAATATTTCTCACTTATTTAAA | – | – | 0.494 |
| ACAGACGAAGGAGCCGCAAAGAAGTTATTAAGGGATGAATAATCCCTTAATATACATATCTCTCACTTATTTAAA | – | – | 0.232 |
| ACAGACGAAGGAGCCGCAAAGAAGTTATTAAGGGATGAATAATCCCTTAATATAGATATCTCTCACTTATTTAAA | – | – | 0.866 |
| ACAGACGAAGGAGCCGCAAAGAAGTTATTAAGGGATGAATAATCCCTTAATATATATATCTCTCACTTATTTAAA | – | – | 0.895 |
| ACAGACGAAGGAGCCGCAAAGAAGTTATTAAGGGATGAATAATCCCTTATTATAAATATCTCTCACTTATTTAAA | – | – | 0.813 |
| ACAGACGAAGGAGCCGCAAAGAAGTTATTAAGGGATGAATAATCCCTTCAATATAAATATCTCTCACTTATTTAA | – | – | 0.904 |
| ACAGACGAAGGAGCCGCAAAGAAGTTATTAAGGGATGAATAATCCCTTTATATAAATATCTCTCACTTATTTAAA | – | 1.14 | 0.977 |
| ACAGACGAAGGAGCCGCAAAGAAGTTATTAAGGGATGAATAATCCGTAAATATAAATATCTCTCACTTATTTAAA | – | – | 0.28 |
| ACAGACGAAGGAGCCGCAAAGAAGTTATTAAGGGATGAATAATCCGTCAAAATAAATATCTCTCACTTATTTAAA | – | – | 0.262 |
| ACAGACGAAGGAGCCGCAAAGAAGTTATTAAGGGATGAATAATCCGTCAATAAAAATATCTCTCACTTATTTAAA | – | – | 0.173 |
| ACAGACGAAGGAGCCGCAAAGAAGTTATTAAGGGATGAATAATCCGTCAATATAAATATCTCTCACTTATTTAAA | 0.247 | 0.167 | 0.234 |
| ACAGACGAAGGAGCCGCAAAGAAGTTATTAAGGGATGAATAATCCGTCAATATAATTATCTCTCACTTATTTAAA | – | – | 0.119 |
| ACAGACGAAGGAGCCGCAAAGAAGTTATTAAGGGATGAATAATCCGTCAATATAGATATCTCTCACTTATTTAAA | – | – | 0.314 |
| ACAGACGAAGGAGCCGCAAAGAAGTTATTAAGGGATGAATAATCCGTCAATATCAATATCTCTCACTTATTTAAA | – | – | 0.15 |
| ACAGACGAAGGAGCCGCAAAGAAGTTATTAAGGGATGAATAATCCGTCATTATAAATATCTCTCACTTATTTAAA | – | 0.136 | – |
| ACAGACGAAGGAGCCGCAAAGAAGTTATTAAGGGATGAATAATCCGTCGATATAAATATCTCTCACTTATTTAAA | – | 0.0608 | 0.106 |

| Sequence | cleaved RNA product abundance [1] | cleaved RNA product abundance [2] | cleaved RNA product abundance [3] |
| --- | --- | --- | --- |
| ACAGACGAAGGAGCCGCAAAGAAGTTATTAAGGGATGAATAATCCTACAATATAAATATCTCTCACTTATTTAAA | – | – | 0.295 |
| ACAGACGAAGGAGCCGCAAAGAAGTTATTAAGGGATGAATAATCCTCAATATAAATATCTCTCACTTATTTAAAG | – | 0.205 | 0.309 |
| ACAGACGAAGGAGCCGCAAAGAAGTTATTAAGGGATGAATAATCCTCCAATATAAATATCTCTCACTTATTTAAA | – | 0.127 | – |
| ACAGACGAAGGAGCCGCAAAGAAGTTATTAAGGGATGAATAATCCTTAAATATAAATATCTCTCACTTATTTAAA | – | – | 0.581 |
| ACAGACGAAGGAGCCGCAAAGAAGTTATTAAGGGATGAATAATCCTTCAAAATAAATATCTCTCACTTATTTAAA | – | 0.259 | 0.253 |
| ACAGACGAAGGAGCCGCAAAGAAGTTATTAAGGGATGAATAATCCTTCAACATAAATATCTCTCACTTATTTAAA | – | 0.159 | – |
| ACAGACGAAGGAGCCGCAAAGAAGTTATTAAGGGATGAATAATCCTTCAAGATAAATATCTCTCACTTATTTAAA | – | – | 0.162 |
| ACAGACGAAGGAGCCGCAAAGAAGTTATTAAGGGATGAATAATCCTTCAATAAAAATATCTCTCACTTATTTAAA | – | 0.185 | – |
| ACAGACGAAGGAGCCGCAAAGAAGTTATTAAGGGATGAATAATCCTTCAATATAAACATCTCTCACTTATTTAAA | – | 0.415 | 0.33 |
| ACAGACGAAGGAGCCGCAAAGAAGTTATTAAGGGATGAATAATCCTTCAATATAAATAACTCTCACTTATTTAAA | – | 0.395 | 0.935 |
| ACAGACGAAGGAGCCGCAAAGAAGTTATTAAGGGATGAATAATCCTTCAATATAAATATCTCTCACTTATTTAAA | 0.617 | 0.442 | 0.576 |
| ACAGACGAAGGAGCCGCAAAGAAGTTATTAAGGGATGAATAATCCTTCAATATAAATATCTCTCACTTATTTAAG | – | – | 0.558 |
| ACAGACGAAGGAGCCGCAAAGAAGTTATTAAGGGATGAATAATCCTTCAATATAAATTTCTCTCACTTATTTAAA | – | – | 0.346 |
| ACAGACGAAGGAGCCGCAAAGAAGTTATTAAGGGATGAATAATCCTTCAATATAAGTATCTCTCACTTATTTAAA | – | – | 0.213 |
| ACAGACGAAGGAGCCGCAAAGAAGTTATTAAGGGATGAATAATCCTTCAATATAATTATCTCTCACTTATTTAAA | – | 0.219 | 0.387 |
| ACAGACGAAGGAGCCGCAAAGAAGTTATTAAGGGATGAATAATCCTTCAATATACATATCTCTCACTTATTTAAA | – | 0.334 | 0.785 |
| ACAGACGAAGGAGCCGCAAAGAAGTTATTAAGGGATGAATAATCCTTCAATATATATATCTCTCACTTATTTAAA | – | – | 0.604 |
| ACAGACGAAGGAGCCGCAAAGAAGTTATTAAGGGATGAATAATCCTTCAATATGAATATCTCTCACTTATTTAAA | – | – | 0.18 |
| ACAGACGAAGGAGCCGCAAAGAAGTTATTAAGGGATGAATAATCCTTCAATGTAAATATCTCTCACTTATTTAAA | – | – | 0.167 |
| ACAGACGAAGGAGCCGCAAAGAAGTTATTAAGGGATGAATAATCCTTCAATTTAAATATCTCTCACTTATTTAAA | – | 0.144 | 0.138 |

| Sequence | cleaved RNA product abundance [1] | cleaved RNA product abundance [2] | cleaved RNA product abundance [3] |
| --- | --- | --- | --- |
| ACAGACGAAGGAGCCGCAAAGAAGTTATTAAGGGATGAATAATCCTTCAGTATAAATATCTCTCACTTATTTAAA | – | – | 0.166 |
| ACAGACGAAGGAGCCGCAAAGAAGTTATTAAGGGATGAATAATCCTTCATTATAAATATCTCTCACTTATTTAAA | – | – | 0.313 |
| ACAGACGAAGGAGCCGCAAAGAAGTTATTAAGGGATGAATAATCCTTCCATATAAATATCTCTCACTTATTTAAA | – | 0.19 | – |
| ACAGACGAAGGAGCCGCAAAGAAGTTATTAAGGGATGAATAATCCTTCGATATAAATATCTCTCACTTATTTAAA | – | – | 0.257 |
| ACAGACGAAGGAGCCGCAAAGAAGTTATTAAGGGATGAATAATCGCACAATATAAATATCTCTCACTTATTTAAA | – | – | 0.0643 |
| ACAGACGAAGGAGCCGCAAAGAAGTTATTAAGGGATGAATAATCGCTAAATATAAATATCTCTCACTTATTTAAA | – | 0.0982 | – |
| ACAGACGAAGGAGCCGCAAAGAAGTTATTAAGGGATGAATAATCGCTCAAAATAAATATCTCTCACTTATTTAAA | – | – | 0.116 |
| ACAGACGAAGGAGCCGCAAAGAAGTTATTAAGGGATGAATAATCGCTCAATATAAATACCTCTCACTTATTTAAA | – | 0.0956 | – |
| ACAGACGAAGGAGCCGCAAAGAAGTTATTAAGGGATGAATAATCGCTCAATATAAATATCTCTCACTTATTTAAA | 0.0971 | 0.101 | 0.12 |
| ACAGACGAAGGAGCCGCAAAGAAGTTATTAAGGGATGAATAATCGCTCAATATATATATCTCTCACTTATTTAAA | – | 0.113 | 0.0772 |
| ACAGACGAAGGAGCCGCAAAGAAGTTATTAAGGGATGAATAATCGCTCAATATTAATATCTCTCACTTATTTAAA | – | 0.0992 | – |
| ACAGACGAAGGAGCCGCAAAGAAGTTATTAAGGGATGAATAATCGCTCAATGTAAATATCTCTCACTTATTTAAA | – | – | 0.048 |
| ACAGACGAAGGAGCCGCAAAGAAGTTATTAAGGGATGAATAATCGCTCATTATAAATATCTCTCACTTATTTAAA | – | 0.0605 | – |
| ACAGACGAAGGAGCCGCAAAGAAGTTATTAAGGGATGAATAATCGTTCAATATAAATATCTCTCACTTATTTAAA | – | – | 0.0943 |
| ACAGACGAAGGAGCCGCAAAGAAGTTATTAAGGGATGAATAATCTATCAATATAAATATCTCTCACTTATTTAAA | – | – | 0.135 |
| ACAGACGAAGGAGCCGCAAAGAAGTTATTAAGGGATGAATAATCTCACAATATAAATATCTCTCACTTATTTAAA | – | 0.18 | 0.262 |
| ACAGACGAAGGAGCCGCAAAGAAGTTATTAAGGGATGAATAATCTCTAAATATAAATATCTCTCACTTATTTAAA | – | 0.627 | 0.558 |
| ACAGACGAAGGAGCCGCAAAGAAGTTATTAAGGGATGAATAATCTCTCAAAATAAATATCTCTCACTTATTTAAA | – | 0.283 | 0.283 |
| ACAGACGAAGGAGCCGCAAAGAAGTTATTAAGGGATGAATAATCTCTCAACATAAATATCTCTCACTTATTTAAA | – | – | 0.156 |
| ACAGACGAAGGAGCCGCAAAGAAGTTATTAAGGGATGAATAATCTCTCAATATAAAAATCTCTCACTTATTTAAA | – | 0.464 | 0.43 |
